Test results from the DeepSol protein solubility set.

Experiment: soluble on expression in E. coli; label from the status in PepcDB or PDB records

Soluble on expression in E. coli, not soluble:
MGSDKIHHHHHHMHFAPVEQATRFLADNPDIELFELFILDANGVPRGKLLHREELLAVYQTGRPLPSTILGLTLNGDDVENSGLVWDVGDIDCRAYPLDGSLVRLPWRRVPTAAVQVSMHPSEGLPASIADPRHVLLRTIEALKADGYHPVMACELEFYLLDQQRDAQGRPQPALDNDGGRPRSTQVYGLRELEQIEPFLADLYAACKAQGIPARTAISEYAPGQVEITLEHGDALQAMDQAVRYKRLVKGVAHAHGMQACFMAKPFAQLAGTGMHMHLSLADSAGNNLFASEDKAGTPLLRQAVAGMLRHLRDSLLLFCPNANSFRRFQANSYAPLAPTWGVDNRTVSLRVPGGPANSRHVEHRICGADANPYLAAAAILAASHWGIREQLDPGAPVEGNGYAQATEHLPTDWLTALDALQHSDWAREALGEDFLGVYLKVKRAEYRQFMAEVSEQDWRWYLHQA, MGSDKIHHHHHHMHGELGKENELDGEIFRQGPVEIRDSRQKVIHSGFSPESQIIEGINAIIKLAHSEEESNLVGIMMSHFMFESIHPFYDGNGRTGRYLLGIQLSKILSPATALTMSSAINQFRNKYYKAFHAVEHRLNRGDGTPFVISMLELLIAAQEGLIENIKQRIDFLASLEDAIKTLRGTNSFKNHQINLLYILGQIQLFGKDETLSLESAAKFLKVSKATATRYFRTLREMELVHEVSKRPLRFALTDKGREIVGLEVKI, MGSDKIHHHHHHMHHIGLTRPYSWGIKNFELITVTEKLNIHIQGQGFPILGLHGHPGSGRSLSVFTNHLSKRYQTIAPDLRGYGTSRFRGNFTMQDHLTDLEALLDRLQIEKCLVLGWSLGGILAMELALRLPQRITGLILVATAARPRGNHPPISWQDNLYTGVAGLLNYIKPGWRWNIETFGKRSLFRYLIQQHTPTAYNYIAREALPAYLQTSPSATRALNSALRLGYNRLADLEQIHCPSLVLAGAQDKHITADSSLETAQHLKQSQWQCYPHTAHLFPWEIPQQVINDIDLWLANNSQVMSN, MGSDKIHHHHHHMHHVKTGALSISRLEYGADVIIEPDHLDNFYLIQIPTQGYAEIEFGSQKFISYSQVASLISPQQSLRMCWHANSPQLILKVSKDDFTYHCRQHIADSENNLLIFDPKLDFSTQGGAYFLQLVRTLMDALACEQHPLHHPLAFKQFESNLFNALIYGQPNNALHKLDHYKEKTVSPYFVKRTEAYIKEHLHEPLNVEILAEHAGVSVRTLFTGFKNYLGTTPMSYLKELRFEQAHLELMHNENLSVTDVAFKWGFTHLGRFSQEYKRRYGELPSSTRRSGQSEGSGLITSIFS, MGSDKIHHHHHHMHIRKYDHDYSRRFFMEQAAKGIATAGVLGPLWPMIANSADITKAYPDELMSIDAWSKGKIKTGDFITAENVDIVKDLLDPVAYQEVKTMGRRIRIVPTTKDVTRMFPHEYLEATLRNQGKAKFDAGGNIVSPDGKPWIGGNPFPDAKTGVEVAANLTLCWGRHDNSIYAIRDWEIAPDGSQSYQYDFAWVEENSVARAQAKSFPGGEDKLRYQAVFFTSPVDVKGTSYLSTWYYDQRKFPDLSGYLPAFKRVRKFPTNQRFEPLVAGVNFYLSDAWASGDPMLTWGNYKIVGRGPMLGAQSQTWYGDHPNWERPVHGGPKGITFFDTNMELCPDVVVFEAEPVGYPRAPVSKKRVWVDTRNMMFVAYVTYDRRGDLFKSFEPQFSLYEKGDKKLMDGSHTAWSWTAVTCHNIQDGRMTRFLQTKSIAGGVSQGYNVEGTFDKYLTEQALQRLGT, MGSDKIHHHHHHMHSLQQLKSQLLSYHAGILGEEYVKKSAVFIPLVEKDDGVHVLFEVRAHTLKQQPGEICFPGGRIDPEDASPEEAAIRETSEELGIPSSVIAPITSLDVLVTPFRGIIYPVIGSIPHKNDYPLNQAEVDHVFTVPIDHFISHPPEQYRINVHFEPGAGFPIERIANQSAYQKSTRQITESFYYYQSYVIWGLTAKILRHVITILKPS, MGSDKIHHHHHHMHVGIFADGGYEKGMGHVVRMKRLAEGLKQRCLITFYTNQDSEAFLHEEHWQVIVKPELQQHEFILREIKSKKLDLLLFDILGAPAELLKKIKTETDAKIVLFEEKNGKSIQYSDAVINGIYGDIRSRVYVQGNTRIYEGPDYLILHPAFQAAREDYTLKKDCRNILVALGGSDPKQLIFKVLAAADQVPDIKDKNMMFVMGSASPHQEAVRRRIEKKPQYKMIEQTNDMAGLMKQADAAIVAGGISLYEAICIGVPCLVLSQVEHQTATAKTFADQGAALDLGLGELVPDETLIYQMSRIMSSYPLRLSLHKGGRPLVDGKGIIRVTAILQDLYEQEI, MGSDKIHHHHHHMIDSSLVLDAETIRNFVKSVNDADSMDKVRAAVSSFAEELRSKSSENGISIREDVLKSILQRIASSHTTELARHYANEVYNMAFISRKLPYSDIDLSRWREYDFVITDSLWLFDKRDYRGSKLGWYWGNFVPQIPRQLILRFSRKDEWVLDPFSGSGTTLIEAKKLGRNSLGIEINEEVCKKSLEILNSIDGDGFSTAISGDSASVNLTKVMEYYGIPEFNLVIMHPPYHDIIKFTDIGGDLSNARDTKEFLSMLGKVTRNVSKYLQKGRFLALVIGDKYSNGEWIPLGFYSMQKVMDQGFRLKSTIVKNFEYTRGKASSSDLWRYRALAGGFYVFKHEYIFVFQKT, MGSDKIHHHHHHMIDVIIVGGGPTGTMLASELRLHGVHTVVVEKRAEPTRIVRGLGLHVRSIEIMDQRGLLERFLAHGTKHPVGGYFAGIMKPWPKSLDTAHPYILGIPQPTTDRLLEERASELGADIRRGWELVGLSQDEDGVTAQLADGTQLRARYLVGCDGGRSTVRTLLGVGFPGESATTEWLLGEVKATASPETVAAVMAKVRQTQLGFAMGPLDDGVYRAVVPAAHVSEDRAAPPTLEEFAQRLREVTGTDFGVHSPRWLSRFNDATRQAERYRVGRVLLAGDAAHIHAPLGGQGLNLGIQDAFNLGWKLAAAVNGWAPEGLLDSYHTERHPVAAEVLDNTLAQSAFMSTDPRARAAHRLLLELMDFEEVNRHVMEKITAVGVRYDFGDGHALLGRRLRDVRLGQGRLYERMRHGRGVLLDRTGRLSVAGWADRVDHVADSAAEIDVPALLLRPDGHVAWIGEDQDDLLAHLPRWFGDPAA, MGSDKIHHHHHHMIEFKEVSKRFGSTLALDKLDANFPTGKIIGLFGPNGAGKSTSIKMIAGLNRPDQGQVVIDGELPRMSKAQIAYLPEIDHLYPWMTIGQAAGFTRSFYVDWDNDKYHELLKYLNLNAEMKIGKISKGQRAKTKLLLTAARRAPYLLMDEPLSGIDILTREEIINTLVRDYREGEQTIIISTHEIAEVESLVDEVFFIDQGKIMLSGSAEEFRVERGQSLVEIMKEAFRHADQ, MGSDKIHHHHHHMIETKFKQTELCRIPEDWDIGTFADFLITFSAGATPYRGIPDNFVGTIPWISSGELNYCEIENTREHISSDAQKNTHLTLHKPGTFLIAITGLEAAGTRGRCAFVKTPATTNQSCLAINSTDKMTVKYLFWFYRQWSDFLAFNFSQGSKQQSFTAEIVKRLPLYAPKYKEQEKIAEALSDVDKLIRELDTLIEKKRAVMQGTMQELLTAHRRLPGFVHPWRNTLVEKCCKITTGESNTRDQIESGIYPFYIRSATVMRSNSYIFDCEGVITIGDGQIGKVFHYVNGKFDLHQRCYLMYDFDDIDVKFFYFLFSFFFYNRVIALSAKATVDSVRRNMIAKMKINIPSTMQEQKAIANILSDMNDGIEAIEAKRDKYIAVRQGMMQQLLTGKIRLI, MGSDKIHHHHHHMIFTLPNTTTQEIAKTLVKIRDTGGQVTTSRVLTLIVVARDTSDVEGIIRATNEASQEHPSRVIILVAGSHEGESQVDAEVRIGGDAGASEMILIKLAGRVAKHLVHVVTPLLLPDTPIVAWWPSSAPINPAEDPIGKIAQRRITDSHFDPPVDALYNRRNHYAPGDSDFSWARLTPWRGVLASSLDQAPYEMVQDVRVYGESDCPSVDLAAGWLCERLGISVERHNYGSGSAAFDDAGLAKIPVKRIELERPSGCVVIEALDDDQTLSVSIPGRSTAHVAVTRRSQADCLAEELRHLDPDIAYARALRGLSRVSYPTQ
